This note sets out measurements from paper doi:10.1101/153403.

Broadly, the stoichiometry N is the number of molecules, sites or subunits per partner or assembly.

The target of assay [1] is mature myostatin growth factor dimer (from HRV-3C cleaved proMSTN-3C) (human) (UniProt O14793). The assay can be described thus: SEC-MALS. Background: Size exclusion chromatography separates by hydrodynamic size, large species first.
Assay [2] addresses myostatin pro-domain of the HRV-3C cleaved pro-myostatin complex (from proMSTN-3C) (human). The assay can be described thus: SEC-MALS.

On to “mature myostatin growth factor dimer (from HRV-3C cleaved proMSTN-3C) (from UniProt O14793 267-375) (ligand)”, for which the stoichiometry N in assay [1] stood at 2. Further, in assay [2], the stoichiometry N (pro-domains per mature GF dimer) came to 2.
